Results as given in US20160152725A1 (Memorial Sloan Kettering, published 2016).

Assays:
[1] = target: T1, biotinylated HLA-A2/WT1126 (…) monomer (human, biotin at a specific biotinylation site at the C-terminus); assay: SPR (Biacore)
T1 construct: also called HLA-A2-WT1 monomer; WT1126/HLA-A2
Description: (§1) Kinetics and affinities of various antibodies and WT1₁₂₆/HLA-A2 were analyzed by surface plasmon resonance technology using a Biacore T100 instrument (GE healthcare). Biotinylated WT1₁₂₆/HLA-A2 was captured by streptavidin-fusion protein on a sensor chip (CM5). A control reference surface was prepared for nonspecific binding and refractive index changes. For analysis of the kinetics of interactions, varying concentrations of antibodies were injected at flow rate of 30 μl/min using a running buffer containing 10 mM HEPES, 150 mM NaCl, 3 mM EDTA, and 0.05% Surfactant P-20 (pH 7.4). The association and dissociation phase data were fitted simultaneously to a 1:1 model by using BIAevaluation 3.2. All the experiments were done at 25° C.

[2] = target: T1, biotinylated HLA-A2/WT1126 (…) monomer; assay: SPR Biacore T100; biotinylated pMHC captured, antibody injected; 1:1 fit
Description: as §1

[3] = target: HLA-A2/WT1 187-195 (…) complex (human, biotin at a specific biotinylation site at the C-terminus); assay: ELISA on wells coated with the named HLA-A2/peptide monomer, HRP anti-Flag detection, OD 490 nm
[4] = target: HLA-A2/WT1 235-243 (…) complex (human, biotin at a specific biotinylation site at the C-terminus); assay: as above
HLA-A2/CDR2 (…) tetramer = target: T2, HLA-A2/CDR2 (…) tetramer (human); assay: flow cytometry of scFv-displaying yeast, negative control HLA-A2-CDR2 tetramer (y, Binding) against scFv expression (x)
T2 construct: Peptide from cerebellar degeneration-related protein 2; also called negative control (HLA-A2-CDR2) tetramer; irrelevant HLA-A2/CDR2-derived peptide

[5] = target: T3, HLA-A2/pp65 (…) on T2 cells (human; human cytomegalovirus); assay: flow cytometry on peptide-loaded T2 cells
T3 construct: also called T2 cells loaded with control peptide pp65

B1: Clone45 scFv (scFv)
scFv: EVQLLESGGGLVQPGGSLRLSCAASGFTFSSYAMSWVRQAPGKGLEWVSQIDPWGQETLYADSVKGRFTISRDNSKNTLYLQMNSLRAEDTAVYYCAKLTGRFDYWGQGTLVTVSSGGGGSGGGGSGGGGSTDIQMTQSPSSLSASVGDRVTITCRASQSISSYLNWYQQKPGKAPKLLIYSASQLQSGVPSRFSGSGSGTDFTLTISSLQPEDFATYYCQQGPGTPNTFGQGTKVEIKRA
notes: also called scFv Clone45; parental Clone45
Kd [1]: 300 nM
Kd [2]: 263 nM
binding result [3]: no binding
binding result [4]: no binding
binding result (HLA-A2/CDR2 (…) tetramer): no binding
binding result [5]: no binding
